Biological target: human CD3 antigen (human) (UniProt P07766)
Assay: competitive flow cytometry on HPBALL cells; competitor: biotinylated monovalent humanised CD3 Mab

UniProt P07766, sequence (P07766 23-207): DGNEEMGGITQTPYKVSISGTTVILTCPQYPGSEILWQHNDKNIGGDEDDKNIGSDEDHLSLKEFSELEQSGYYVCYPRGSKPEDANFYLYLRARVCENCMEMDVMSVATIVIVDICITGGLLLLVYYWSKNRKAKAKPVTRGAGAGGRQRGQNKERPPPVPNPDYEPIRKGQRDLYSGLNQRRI

fold concentration for 50% competition, against rat YTH12.5 Mab: 1.3 fold
B1: humanised bivalent CD3 Mab (antibody, V domains shown)
VH: EVQLLESGGGLVQPGGSLRLSCAASGFTFSSFPMAWVRQAPGKGLEWVSTISTSGGRTYYRDSVKGRFTISRDNSKNTLYLQMNSLRAEDTAVYYCAKFRQYSGGFDYWGQGTLVTVSS
VL: DFMLTQPHSVSESPGKTVIISCTLSSGNIENNYVHWYQQRPGRAPTTVIFDDDKRPDGVPDRFSGSIDRSSNSASLTISGLQTEDEADYYCHSYVSSFNVFGGGTKLTVL
